Reference: the DeepSol protein solubility set

Test: soluble on expression in E. coli; label from the status in PepcDB or PDB records

Row | Sequence | soluble on expression in E. coli
1 | MSLIPLRQNIASMKGYIPGYQPPDIASWIKLNTNENPYPPSPEVVKAILEELGPDGAALRIYPSASSQKLREVAGELYGFDPSWIIMANGSDEVLNNLIRAFAAEGEEIGYVHPSYSYYGTLAEVQGARVRTFGLTGDFRIAGFPERYEGKVFFLTTPNAPLGPSFPLEYIDELARRCAGMLVLDETYAEFAESNALELVRRHENVVVTRTLSKSYSLAGMRIGLAIARPEVIAALDKIRDHYNLDRLAQAACVAALRDQAYLSECCRRIRETREWFTTELRSIGYDVIPSQGNYLFATPPDRDGKRVYDGLYARKVLVRHFSDPLLAHGMRISIGTREEMEQTLAALKEIGEGHHHHHH | soluble
2 | SNAMRNKNMSTIYQTSATASAGRNGVVSTEDKLLELNLSYPKEMGGSGTATNPEQLFAVGYAACFSNAILHVAREAKVALKEAPVTATVGIGPNGQGGFALSVALAAHIALEDEQARQLVTVAHQVCPYSNAVRGNIDVQVSVNGLAL | soluble
3 | MAQFTEEEKTIRRIEKRFNKGMVQYGLIEEGDKVLVGLSGGKDSLALVELLGKRSHIFKPRFSVVAVHVVMKNIPYQSDWDYLREHAEKNGVPLVVYETSFDPSTDTRKSPCFLCSWNRRKALFTVAKEQGCNKIALGHHMDDILETLLMNITYQGAFSTMPPRLVMNKFDMTIIRPMCLVHEADLLELAQIRGYRKQVKNCPYESQSSRSDMKGILRQLEKMNPEARYSLWGSMTNVQEELLPKEVEF | not soluble
4 | MSLTSEDFLIKSKGYLDIQTGEIIKADLLIRNGKIAEIGKINTKDATVISIPDLILIPGLMDSHVHIVGNDSKGEESIADSSHMGTVWGVVNAEKTLMAGFTTVRNVGAANYADVSVRDAIERGVINGPTMLVSGPALGITGGHCDHNLLPPEFNYSSEGVVDSPWEARKMVRKNRKYGADLIKFCATGGVMSRNTDVNAKQFTLEEMKAIVDEAHNHGMKVAAHAHGLIGIKAAIKAGVDSVEHASFIDDETIDMAIKNNTVLSMDIFVSDYILGEGAKAGIREESLNKERLVGKKQRENFMNAHRRGAIITFGTDAGIFDHGDNAKQFAYMVEWGMTPLEAIQASTIKTATLFGIENIGQIKEGFDADIVGVIENPLANIRTLEEVAFVMKEGKVYKREGHHHHHH | soluble
5 | MNTLTTTSVVLPAPRPAINQGIDINNEMVLNHTAIYENCLAQVTQENTVENALMLLDPYGTAPLSAYAGVWSLEPAEIIVTVQDAAKTAMPVEHLYTLTAGANLLPVLGLVADTENRIVFSQADTPLAVYTLITQPLPPVDSAEVVLGFPIINVTQPATDANKMAPGFYFITHFDRYNYALDQNGLVRWYVTQDYPSYNFVRIDNGHFLTTSEAKNTYLDMYEFDMMGRLHTFYNLDNQFHHSIWPWDSNTIVAPSEYTSGRPDDLKTNEDGVSVVDLTTGLETAYYDMAKVLDTTRVSRPSGTAPGEDPTVKDWLHINQSYVNETNQLLIASGRHQSAVFGVDLQTQALRFILSTHEDWDDAYQPYLLTPVDSEGVALYDFSKQEDIDAADRDFWTWGQHNVVEIANNTPGIVEFMVFDNGNYRSRDDSKSLLPPDNYSRIVHFVVNMNEMTVMRPFEYGKELGARGYSSCVSAKAIQQNGNIVVHFADCTFDENGRAISCQPGESDIIDPQAGSEAMGLLILQEIAPTEKTVLFEATMTSGYYKNAETNGEGYRYDITSFRVYKMDLYALEHHHHHH | soluble
6 | SLGMDEKSVAIVFPHHLLEDHPAAGKTSGFILVEDQLFFGDPVFGLRFHKNKLVLHRASMRYYHDHLKSRGLKAEYIQYSPDPHMGYLRDHLEGYDRVYTLELLDHELEARMKKLSMELGLEITEIEAPFIFRRNLMDGYFRDGRFLLRSFYIRERKRLSILMENSRPAGGKWTFDTENRKRMPPDLQVPAPVKLPENEYVQEAKEYVSEKFPDNPGSMDRFNYP | not soluble
7 | PRKASRKPPREESSATCVLEQPGALGAQILLVQRPNSGLLAGLWEFPSVTWEPSEQLQRKALLQELQRWAGPLPATHLRHLGEVVHTFSHIKLTYQVYGLALEGQTPVTTVPPGARWLTQEEFHTAAVSTAMKKVFRVYQGQ | soluble
8 | MQDLICYKKMPQWNSQTLPAAFQEKHNTQEGTWAKLTVLKGEMTFSMLTEDGDTLETFHFSEQNQPPFVEPQAWHRIVSFSDDLECQLSFFCSAEDFYHKKYGLTQTHSEVINAVQHIKPGKTLDLGCGGGRNSLYLNLRGFDVTACDKHEQSIDSLNNIIQSEALENIRAGVYNINLAEIKEQYDFILSTVVLMFLERDRIPHIISNMQGSTVDGGYNLIIAAMSTEDCPCPMPFSFTFKEDELKNYYADWEILKYNEDMGELHKTDAQGNRIKLRFATLLARKPLEHHHHHH | soluble
9 | MPGVEPYEPLQLMGRDVYIREGCVGCHSQQVRTLQAEVQRYGPYSVAGESVFDHPFLWGSKRTGPDLARVGERYSDEWHRIHLRDPRAVVPESNMPAYPWLQHADLTGQNVAQRMQALRRLGVPYTDEAIAAAPAAIAGKTEEDALVAYLQALG | not soluble
10 | SMGTKLKKSNNDITIFSENEYNEIVEMLRDYSNGDNLEFEVSFKNINYPNFMRITEHYINITPENKIESNNYLDISLIFPDKNVYRVSLFNQEQIGEFITKFSKASSNDISRYIVSLDPSDDIEIVYKNRGSGKLIGIDNWAITIKSTEEIPLVAGKSKISKPKITGSERIMYRYKTRYSFTINKNSRIDITDVKSSPIIWKLMTVPSNYELELELINKIDINTLESELLNVFMIIQD | soluble
11 | MAKSSERFESLRRDIDALARRLDVPSVLIMRSLPRHMRVEASAGRLEDTYPIGAEGRKSVHEDGAKPLYCERVVDRDAPLHVRDSRQETEWAGNEDEVEFGLSNYLGYPVHAPDGTPYGTVCVLDSRPRDYSAEERALLEELRRKVEALLAETVS | not soluble
12 | MAHHHHHHMPVKRSNKVHKFHEGTGDDNMPVVSMFVVKDGDEPFTRIDVELFVNKVPKACDLFLQTCAFPTVGDKRNAKRGSYKGCRFVRLTKEALQVADGSGPRAVPLSELEAEIGRVNHGVGIASLCRSSTSFDESFFFCLTDNRLELDSLDKRHVAFGRVTGGLDALMGLRDALVPYVQEGCVIVGSPYAVSEVVPKAKQ | soluble
13 | MGSSHHHHHHSSGRENLYFQGSPVEKYNFKAEVNKVMDIIVNSLYTDKDVFLRELISNASDACDKKRIILENNKLIKDAEVVTNEEIKNETEKEKTENVNESTDKKENVEEEKNDIKKLIIKIKPDKEKKTLTITDNGIGMDKSELINNLGTIAQSGTAKFLKQIEEGKADSNLIGQFGVGFYSSFLVSNRVEVYTKKEDQIYRWSSDLKGSFSVNEIKKYDQEYDDIKGSGTKIILHLKEECDEYLEDYKLKELIKKYSEFIKFPIEIWSE | soluble
14 | MLSTGTKSLDSLLGGGFAPGVLTQVYGPYASGKTTLALQTGLLSGKKVAYVDTEGGFSPERLVQMAETRGLNPEEALSRFILFTPSDFKEQRRVIGSLKKTVDSNFALVVVDSITAHYRAEENRSGLIAELSRQLQVLLWIARKHNIPVIVINQVHFDSRTEMTKPVAEQTLGYRCKDILRLDKLPKPGLRVAVLERHRFRPEGLMAYFRITERGIEDVE | soluble
15 | GPGSMRKKSVQETDEVPNERLPHILSSSDDPTEVNKALVVLLRRLRAGAGEPISLSPATLSQLLRILVGRTDDAWLEVRKKIAFVFSELLSKDNADVLADALLYGRLHTTTSSEARASRIDFGGVDENSAPDPFTSLKKMKEILGKLAEAHGTVERCVPAADVFRTFLRLPALLEVIMSPEPLFDVEDNDGSAPAHHATKKRCFNDTCIGILCRSAQAYTTALCTETWRSLSTALCTNKALSAPLLLCYFNEFVGMFLGCLEGDNFVAKLHALELIDAILEDAAFLKARPKLAESPALLCALLPLTNSRSQHIRFLTFDAIKVFIAKGNKPAPIRYILYINRETLARYVEDYSPNEATIGKVLSAEKEKILRSLLSLEPLSHEEEVLLNASA | not soluble
16 | MGVLTTFISQKALVGGYDNTIEPGVVILSGATITCNVSIGQGTFINKSTVISHDVRIGRYCEVSPGAKVLGRAIIGDRTEIGANAVILPDVIVGADCKIGAGAVVTRNIDSHTTVAGVPARSITKSSNNAFKLKSKIRNLLYHIRIADFRKLREYNHYVFGLEHHHHHH | not soluble
17 | MGSDKIHHHHHHLDFRLLRYFVAVAEELHLARAAERLGIEQSPVSRAMRDLESQLGVQLFDRSTRLTRLTWAGQVFLGECRRVMATVEQAVKSAKAAAQGYQGHLRIAICDSLAQPRIATLLARSREEEPELEIRVFELPFAQQLKMLHDDLLDIGFALSNAVHDGLVAEPVWTDPLSVIVPARHPLLAHVQVPLPEALKFPLVLCHPESGSGCRHQIQALLQDAGTPLKLVDEVTSLGVMLTLVGAGYGIGFAIASQVQTLQRPDISIRPLAGTPPMLSTYLLRRRGEPSEPMRRFIERVKDGAAPVDDEPVL | not soluble
18 | MGSDKIHHHHHHMKTLQYSFAQIEAFATIAETGSLSQAAIRLAKDRTTLRDLLDYLEDALGYRLFSREGRSLTLTAEGEQLFRQAHLLLRQAQAFESFAQTLPQTAGQALRLVYDPFVPREFLCALADNLARRQIRLSCWSASRREAEQALSDGVAEMAICQANNRTLGSEMEWRALGTVDLRFYAADSLFHDAPRPLTLLNLSLTPQLVMHRRSDDQIARRLQISGHTLYMNEITLLRHALEQGRGWGFLPDHLRPGEWQGVSEIATEVGSQGLNVTMVMLWLPGMNKHRMLSDIVHEAPELWLRR | not soluble
19 | MPPSPLDDRVVVALSRPVRPQDLNLCLDSSYLGSANPGSNSHPPVIATTVVSLKAANLTYMPSSSGSARSLNCGCSSASCCTVATYDKDNQAQTQAIAAGTTTTAIGTSTTCPANQMVNNNENTGSLSPSSGVGSPVSGTPKQLASIKIIYPNDLAKKMTKCSKSHLPSQGPVIIDCRPFMEYNKSHIQGAVHINCADKISRRRLQQGKITVLDLISCREGKDSFKRIFSKEIIVYDENTNEPSRVMPSQPLHIVLESLKREGKEPLVLKGGLSSFKQNHENLCDNSLQLQECREVGGGASAASSLLPQPIPTTPDIENAELTPILPFLFLGNEQDAQDLDTMQRLNIGYVINVTTHLPLYHYEKGLFNYKRLPATDSNKQNLRQYFEEAFEFIEEAHQCGKGLLIHCQAGVSRSATIVIAYLMKHTRMTMTDAYKFVKGKRPIISPNLNFMGQLLEFEEDLNNGVTPRILTPKLMGVETVV | soluble
20 | MLHVAGRIEDYALIGDMQIAALVCQDGTVDWLCLPRFDSHAVFAGLLGTEEHGFWRLGPAHASDAEPPRASRRTYRGDSLILESEWDTPRGTVRVTDFMPPRDGAPQLIRIVEGVTGRVPMRSALRMRFSYGLEHHHHHH | not soluble
21 | MGNGDKVMSHWSFHIPRLHHHEHDHEKVPKGCLAVKVGQGEEQERFVIPVMYFNHPLFGQLLKEAEEEFGFAQKGTITIPCHVEEFRYVQGLIDRENTRFLGTNLLDHHHHHHNHLIRCFRV | not soluble
22 | MCLVQATGGSSTHKLVSAGAEKMIITRPDFVDPPGSKDISITRTARAPKEDKLVIHFCTCRCN | not soluble
23 | MFTIKKATTNDIQLINEMAQIVFPATYREILSKEQLDYMMDWMYSPKNLRKQMEEEGHIYYIAYKDGEAAGYVSIQPEGEHLFHLQKIYVLPLFQGCRLGKALFEQAVKAIKEIHPGPCEMHLNVNRNNKALQFYQHLGMEKVAEGDFHIGNGYYMNDYIMGLKI | not soluble
24 | GSHNATSGHEDMPVERILEAELAVEPKTESYGDMNMENSTNDPVTNICHAADKQLFTLVEWAKRIPHFSDLTLEDQVILLRAGWNELLIASFSHRSVSVQDGILLATGLHVHRSSAHSAGVGSIFDRVLTELVSKMKDMQMDKSELGCLRAIVLFNPDAKGLSNPSEVETLREKVYATLEAYTKQKYPEQPGRFAKLLLRLPALRSIGLKCLEHLFFFKLIGDTPIDTFLMEMLETPLQIT | soluble
